Consider seven molecules from publication PMC8345930, “Quaternary Structure and Hetero-Oligomerization of Recombinant Human Small Heat Shock Protein HspB7 (cvHsp)” (International Journal of Molecular Sciences, 2021).

The chains are these.
B1: Δ13 mutant of HspB7 (lacking the first 13 residues) (domain or fragment)
chain: not shown
notes: HspB7 (cvHsp), human, lacking the first 13 residues; made by PCR from the pET23b(+) HspB7 plasmid (forward primer with an NdeI site, ATG before the codon of residue 14); The printed forward primer places a start codon (Met) directly before residue 14; source: E. coli Rosetta2 (DE3) pLysS, purified
B2: Cys-mutant of HspB8 (C10S/C99S/C195S/N138C) (natural protein, human, UniProt Q9UJY1 1-196, looked up)
chain: MADGQMPFSSHYPSRLRRDPFRDSPLSSRLLDDGFGMDPFPDDLTASWPDWALPRLSSAWPGTLRSGMVPRGPTATARFGVPAEGRTPPPFPGEPWKVSVNVHSFKPEELMVKTKDGYVEVSGKHEEKQQEGGIVSKCFTKKIQLPAEVDPVTVFASLSPEGLLIIEAPQVPPYSTFGESSFNNELPQDSQEVTST
notes: HspB8, human, with the four mutations C10S/C99S/C195S/N138C; single Cys in the β7 strand at the position homologous to Cys137 of HspB1; also called HspB8 Cys; HspB8 Cys^Ox
B3: recombinant human small heat shock protein HspB7 (cvHsp), wild type, untagged (natural protein)
chain: not shown
notes: HspB7 (cvHsp), human; full copy recloned from Addgene #63108 into pET23b(+) at NdeI and XhoI; single Cys126; calculated monomer weight 18.6 kDa; HspB7-D (small oligomers, probably dimers) and HspB7-L (mostly large oligomers) are two oligomeric preparations of the same construct; the assays tell them apart; also called cardiovascular Hsp; HspB7-D; source: E. coli Rosetta2 (DE3) pLysS, purified …
B4: Cys-mutant of HspB6 (C46S/E116C) (natural protein, human, UniProt O14558 1-160, looked up)
chain: MEIPVPVQPSWLRRASAPLPGLSAPGRLFDQRFGEGLLEAELAALSPTTLAPYYLRAPSVALPVAQVPTDPGHFSVLLDVKHFSPEEIAVKVVGEHVEVHARHEERPDEHGFVARCFHRRYRLPPGVDPAAVTSALSPEGVLSIQAAPASAQAPPPAAAK
notes: HspB6, human, with the double mutation C46S/E116C; single Cys in the β7 strand at the position homologous to Cys137 of HspB1; also called HspB6 Cys; HspB6 Cys^Ox
B5: wild-type HspB6 (natural protein, human, UniProt O14558 1-160, looked up)
chain: B4 chain with S46C, C116E
notes: HspB6, human, full-size wild type; The abstract says that the wild-type HspB6 was used in the ELISA
B6: HspB7 with Cys126 modified by iodoacetamide (natural protein)
chain: not shown
modifications: Cys126 modified by iodoacetamide
notes: HspB7 (cvHsp), human; full copy from Addgene #63108 in pET23b(+); the single SH group (Cys126) modified by iodoacetamide; Same construct as m1, chemically modified at Cys126; also called SH Mod HspB7-L
B7: ΔSer mutant of HspB7 (lacking the polySer sequence, residues 17–29) (natural protein)
chain: not shown
notes: source: E. coli Rosetta2 (DE3) pLysS, purified

Data set [1] concerns the molecule itself. As to the kind of experiment: SEC; Δ13 and ΔSer deletion mutants of HspB7; analytical Superdex 200 Increase 10/30 GL, 50 mM phosphate pH 7.4, 150 mM NaCl. A general note: SEC sorts molecules by how far they enter the pores of the column.
Data set [2] deals with the molecule itself. As to the kind of experiment: cross-linking; disulfide cross-linking: reduced proteins alone or in equimolar mixture (15 µM each), 1 h at 42 °C, dialysed overnight at 37 °C against 50 mM Tris-HCl pH 8.0, 50 mM KCl, 0.1 mM PMSF; read by SDS-PAGE (HspB8) or urea gel electrophoresis (HspB6).
Data set [3] concerns the molecule itself. As to the kind of experiment: SEC; HspB7-D preparation (flow-through of phenyl sepharose, Fraction 1); analytical Superdex 200 Increase 10/30 GL, 50 mM phosphate pH 7.4, 150 mM NaCl; 20, 50 or 100 μg loaded.
Data set [4] addresses B3. As to the kind of experiment: SEC; oxidised (disulfide cross-linked) proteins alone or in equimolar mixture on Superdex 200 Increase GL 10/300; profile of the mixture compared with the arithmetic sum of the isolated proteins. To be noted: both partners purified.
Data set [5] has as its target B3. As to the kind of experiment: ELISA; sandwich: plate coated with monoclonal mouse anti-HspB6 antibody (clone 20-6) as capture; HspB6, HspB7 or their equimolar mixture added (25-400 ng of each protein per well), 1 h; HspB7 detected by rabbit polyclonal anti-HspB7 and HRP-conjugated anti-rabbit antibodies. To be noted: both partners purified. A general note: ELISA stands for enzyme-linked immunosorbent assay.

Data set [6] deals with the molecule itself. As to the kind of experiment: SEC; HspB7-L (0.6 mg/mL) reduced with 3 mM DTT, Cys126 modified with 8 mM iodoacetamide, then analytical SEC on Superdex 200 Increase.

As a reminder, the stoichiometry N is the number of molecules, sites or subunits per partner or assembly.

Changes are numbered by the printed parent chain. Numbers in names are those of the source.

Regarding B1, the binding result in data set [1] was “binds”.
B2: the binding result in data set [2] is listed as “binds”.
Consider B3, for which the “stoichiometry N” value in data set [3] was about 2.
For B4, the binding result in data set [4] and in data set [2] was “binds” throughout.
Take B5: in data set [5], the binding result is on record as “binds”.
As for B6, the binding result in data set [6] was “binds”.
Regarding B7, the binding result in data set [1] is “binds”.
